Legend:
[1] = biological target: T1, MBP-GlcR (MGlcR) (Paracoccus denitrificans) (UniProt A1BAC0); test: EMSA; conditions: EMSA buffer, salt, pH and temperature not given in the material
T1 sequence: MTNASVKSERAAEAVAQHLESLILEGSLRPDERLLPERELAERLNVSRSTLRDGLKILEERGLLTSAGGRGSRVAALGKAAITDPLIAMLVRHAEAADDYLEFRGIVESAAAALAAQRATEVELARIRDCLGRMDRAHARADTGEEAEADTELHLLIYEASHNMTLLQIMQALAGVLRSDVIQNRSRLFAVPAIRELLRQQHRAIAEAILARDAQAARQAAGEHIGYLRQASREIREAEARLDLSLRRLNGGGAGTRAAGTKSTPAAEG

[2] = biological target: T2, MBP-GlcR (MGlcR) (Paracoccus denitrificans, UniProt A1BAC0 1-269); test: EMSA
T2 sequence: T1 sequence

With “CTTTCTAGATCACGCACGCGCCAGGATGCCCGCATCGGGCCGGGGCATGGCAATACCGGACAAGCTCTCCTCCCTTGGTCGAACGGCAGGCCCGTGTCCTGCCCTGCATTCTTGGTATAATTTTCAGACCACATTAGTCAATCGGTATTTTTCTGGACCGACACGCCCGTCCTGTGCTTACATGGCAGGGATCCGACAACCGCATGAGCGCCCATGACCAACGCATCCGTGAAATCCGAACGCGCCGCCGAGGCCGTGGCCCAGTGAGAATTCATATC (double strand) [pden4399-4400 intergenic sequence]” the binding [1] was “binds”.

B1: fragment #3 (dsDNA)
DNA 1: GTCCAGAAAAATACCGATTGACTAATGTGGTCTGAAAATTATACCAAGAATGCAGGGCAG
DNA 2: CTGCCCTGCATTCTTGGTATAATTTTCAGACCACATTAGTCAATCGGTATTTTTCTGGAC
B1: binds [2].
